In publication PMC5651844, “YEATS2 links histone acetylation to tumorigenesis of non-small cell lung cancer” (Nature Communications, 2017) one finds fold drop against the wild-type H3K27ac peptide data, which are given here for one substance.

The target of this assay is YEATS domain of human YEATS2 (aa 201-332), tag removed (human) (UniProt Q9ULM3). Nature of the assay: ITC; YEATS2_(201-332) titrated with histone peptides, 15 C, 20 mM Tris 7.5, 0.5 M sodium citrate, 5% glycerol, 2 mM beta-mercaptoethanol; one set of binding sites model. Background: In ITC the heat of successive injections is recorded.
Chain of YEATS domain of human YEATS2 (aa 201-332), tag removed (human) (Q9ULM3 201-332): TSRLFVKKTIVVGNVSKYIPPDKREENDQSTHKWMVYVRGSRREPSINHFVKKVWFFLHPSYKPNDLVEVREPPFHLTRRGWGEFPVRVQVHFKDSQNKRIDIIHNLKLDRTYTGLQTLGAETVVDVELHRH

Chain of histone H3 P30A mutant peptide (peptide; modification not given) (chain, as listed by the source P30A): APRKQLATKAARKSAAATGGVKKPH

The substance “histone H3 P30A mutant peptide (peptide; modification not given)” showed a fold drop against the wild-type H3K27ac peptide of 2 fold.
